Measurements published in the Immune Epitope Database (IEDB).

Tests used:
[1] = molecular target: HLA-A*02:03; test: IEDB peptide-MHC binding, purified MHC/competitive/fluorescence; filed as Kd, often an IC50 or EC50 that approximates it; ≥ and ≤ were set here for values at or beyond the usual limits of such assays
[2] = molecular target: HLA-B*46:01; test: as above
[3] = molecular target: HLA-A*26:01; test: as above
[4] = molecular target: HLA-B*57:01; test: as above
[5] = molecular target: HLA-A*02:12; test: as above; conditions: source organism: Vibrio parahaemolyticus AQ3810
[6] = molecular target: HLA-B*18:01; test: as above
[7] = molecular target: HLA-A*02:19; test: as above
[8] = molecular target: HLA-B*39:01; test: as above
[9] = molecular target: HLA-B*27:03; test: as above
[10] = molecular target: HLA-A*03:01; test: as above
[11] = molecular target: HLA-B*15:01; test: IEDB peptide-MHC binding, purified MHC/direct/fluorescence; filed as Kd, often an IC50 or EC50 that approximates it; ≥ and ≤ were set here for values at or beyond the usual limits of such assays
[12] = molecular target: HLA-B*08:01; test: as above
[13] = molecular target: HLA-B*15:09; test: as above
[14] = molecular target: HLA-B*27:05; test: as above
[15] = molecular target: HLA-B*40:01; test: as above
[16] = molecular target: HLA-B*46:01; test: as above
[17] = molecular target: HLA-B*07:02; test: as above
[18] = molecular target: HLA-B*08:02; test: as above
[19] = molecular target: HLA-A*26:01; test: as above
[20] = molecular target: HLA-A*01:01; test: as above
[21] = molecular target: HLA-A*02:01; test: as above
[22] = molecular target: HLA-A*11:01; test: as above
[23] = molecular target: HLA-A*03:01; test: as above
[24] = molecular target: HLA-B*58:01; test: as above
[25] = molecular target: HLA-C*03:03; test: as above
[26] = molecular target: HLA-A*01:01; test: IEDB peptide-MHC binding, purified MHC/competitive/fluorescence; filed as Kd, often an IC50 or EC50 that approximates it; ≥ and ≤ were set here for values at or beyond the usual limits of such assays
[27] = molecular target: HLA-B*58:01; test: as above
[28] = molecular target: HLA-A*02:11; test: as above
[29] = molecular target: HLA-A*29:02; test: as above; conditions: source organism: Entamoeba histolytica HM-1:IMSS
[30] = molecular target: HLA-C*05:01; test: IEDB peptide-MHC binding, purified MHC/direct/fluorescence; filed as Kd, often an IC50 or EC50 that approximates it; ≥ and ≤ were set here for values at or beyond the usual limits of such assays
[31] = molecular target: HLA-A*02:01; test: IEDB peptide-MHC binding, purified MHC/competitive/fluorescence; filed as Kd, often an IC50 or EC50 that approximates it; ≥ and ≤ were set here for values at or beyond the usual limits of such assays
[32] = molecular target: HLA-A*68:02; test: IEDB peptide-MHC binding, purified MHC/direct/fluorescence; filed as Kd, often an IC50 or EC50 that approximates it; ≥ and ≤ were set here for values at or beyond the usual limits of such assays; conditions: source organism: Camelpox virus M-96
[33] = molecular target: HLA-A*69:01; test: as above
[34] = molecular target: HLA-B*44:02; test: as above
[35] = molecular target: HLA-B*15:17; test: as above; conditions: source organism: Camelpox virus M-96
[36] = molecular target: HLA-B*57:01; test: as above
[37] = molecular target: HLA-B*48:01; test: as above
[38] = molecular target: HLA-A*31:01; test: as above
[39] = molecular target: HLA-B*18:01; test: as above
[40] = molecular target: HLA-B*39:01; test: as above
[41] = molecular target: HLA-A*29:02; test: as above; conditions: source organism: West Nile virus
[42] = molecular target: HLA-A*69:01; test: IEDB peptide-MHC binding, purified MHC/competitive/fluorescence; filed as Kd, often an IC50 or EC50 that approximates it; ≥ and ≤ were set here for values at or beyond the usual limits of such assays; conditions: source organism: Human immunodeficiency virus 1
[43] = source organism: Vibrio parahaemolyticus AQ3810
[44] = source organism: Burkholderia mallei
[45] = source organism: Burkholderia mallei ATCC 23344
[46] = source organism: Salmonella enterica subsp. enterica serovar Typhi
[47] = source organism: Entamoeba histolytica HM-1:IMSS
[48] = source organism: Camelpox virus M-96
[49] = source organism: West Nile virus
[50] = source organism: West Nile virus strain PTRoxo
[51] = source organism: Yersinia pestis Nepal516
[52] = source organism: Bacillus thuringiensis str. Al Hakam
[53] = source organism: Human immunodeficiency virus 1

Measured: Kd

SSRGYSAIW
≥ 20 µM: [1]; [43] | [2]; [43] | [3]; [43] | [5] | [6]; [43] | [7]; [43] | [8]; [43] | [9]; [43] | [10]; [43]
0.042 µM: [4]; [43]

EARGKEKLL
≥ 20 µM: [11]; [44] | [13]; [45] | [14]; [44] | [15]; [44] | [16]; [44] | [17]; [44] | [18]; [45] | [19]; [45] | [20]; [44] | [21]; [44] | [22]; [44] | [23]; [44] | [24]; [44]
5.88 µM: [12]; [45]

YLVDCGAEL
≤ 0.001 µM: [25]; source organism: Mycobacterium tuberculosis str. Haarlem

ITSKEVFTY
2.28 µM: [10]; [46]
0.0338 µM: [26]; [46]
0.0256 µM: [27]; [46]

CLSPVVAGL
0.219 µM: [29]
≥ 20 µM: [2]; [47] | [3]; [47] | [4]; [47] | [6]; [47] | [9]; [47] | [10]; [47]
0.0008 µM: [7]; [47]
≤ 0.0001 µM: [28]; [47]

ILDTGTIQL
1.27 µM: [25]; source organism: Homo sapiens
0.019 µM: [30]; source organism: Homo sapiens

KELENEYYF
0.0183 µM: [15]; [48]
≥ 20 µM: [31]; source organism: Vaccinia virus WR | [12]; source organism: Variola virus | [13]; source organism: Variola virus | [32] | [14]; [48] | [33]; [48] | [17]; [48] | [18]; source organism: Variola virus | [34]; [48] | [19]; source organism: Variola virus | [35] | [20]; [48] | [36]; [48] | [37]; [48] | [38]; [48] | [22]; [48] | [40]; source organism: Variola virus | [24]; [48]
0.0198 µM: [39]; [48]

TEGEGRVIL
1.01 µM: [39]; [49]
≥ 20 µM: [11]; [49] | [13]; [50] | [14]; [49] | [33]; [49] | [16]; [49] | [17]; [49] | [34]; [49] | [20]; [49] | [36]; [49] | [37]; [49] | [38]; [49] | [21]; [49] | [22]; [49] | [41] | [40]; [49] | [23]; [49] | [24]; [49]
0.0459 µM: [15]; [49]

STIVWSSRY
3.5 µM: [10]; [51]
0.17 µM: [27]; [51]
1.4 µM: [26]; [51]

GHGTVVLEL
0.0067 µM: [8]; source organism: Murray Valley encephalitis virus
≥ 20 µM: [11]; [49] | [14]; [49] | [33]; [49] | [15]; [49] | [16]; [49] | [17]; [49] | [34]; [49] | [20]; [49] | [36]; [49] | [38]; [49] | [21]; [49] | [39]; [49] | [23]; [49] | [24]; [49]
4.55 µM: [13]; [50]

YSAWGGYNL
4.18 µM: [30]; [52]
0.404 µM: [8]; [52]

GLADQLIHI
0.0095 µM: [7]; [53]
0.0295 µM: [31]; [53]
0.0012 µM: [1]; [53]
≥ 20 µM: [42]
0.0002 µM: [28]; [53]
